This passage reports trimer yield (PGT145 AlphaLISA signal), factor over the variant of SEQ ID NO: 25 without K655I results from US20230374078A1.

The target in this test is variant of repaired and stabilized Du422 construct (HIV161818) with the additional K655I substitution (HIV-1 clade C strain Du422). Briefly: assay not named in the sentence (data not shown); trimer yield by AlphaLISA elsewhere. Background: Bead proximity is the source of the signal in Alpha formats.

mAb PGT145 (antibody) returned a trimer yield (PGT145 AlphaLISA signal), factor over the variant of SEQ ID NO: 25 without K655I of 1.3 fold.
